What was measured:
[1] = tested on: proFIX-Fc (FIX-Fc retaining the FIX propeptide; dimer or monomer form not given)
[2] = target: precursor (proFIX) of FIX alone produced in the presence of PACE-SOL (BeneFIX®) (UniProt P00740)
Chain of precursor (proFIX) of FIX alone produced in the presence of PACE-SOL (BeneFIX®) (P00740 whole entry, looked up): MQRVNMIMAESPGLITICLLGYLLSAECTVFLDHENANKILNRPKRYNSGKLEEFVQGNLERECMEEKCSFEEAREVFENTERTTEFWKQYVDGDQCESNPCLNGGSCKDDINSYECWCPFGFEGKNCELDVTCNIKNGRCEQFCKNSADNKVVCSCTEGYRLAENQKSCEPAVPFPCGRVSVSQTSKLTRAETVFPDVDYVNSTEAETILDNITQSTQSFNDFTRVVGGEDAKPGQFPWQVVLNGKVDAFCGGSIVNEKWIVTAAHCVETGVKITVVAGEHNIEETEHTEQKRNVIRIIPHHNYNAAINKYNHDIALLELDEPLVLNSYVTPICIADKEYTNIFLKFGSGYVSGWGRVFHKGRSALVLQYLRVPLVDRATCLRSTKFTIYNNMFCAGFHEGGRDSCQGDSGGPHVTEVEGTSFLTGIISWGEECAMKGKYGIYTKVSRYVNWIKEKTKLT

PACE-SOL (soluble form of human PACE, amino acids 1-715)
Propeptide Processing (Western blotting), CHO, transient transfection [1]: processes
peptide mapping (tryptic digest, LC/MS) for the propeptide indicator peptide (PIP) [2]: FIX alone produced in the presence of PACE-SOL (BeneFIX®) appeared identical to FIX-Fc monomer produced with PC5 (FIG. 13), displaying no detectable PIP

— patent publication US20070259402
